Source: the supplement of paper PMC10567573
± gives the standard deviation.

Assay: protein stability index of a GFP-peptide fusion (GPS, HEK-293T) (PSI 1-6); higher = more stable
Conditions: c terminus: a fixed tail appended
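Note: 24-mer peptide tiles fused after GFP, lentivirally expressed, FACS-sorted into six equal bins by GFP/DsRed ratio, decoded by Illumina sequencing, PSI is the read-weighted mean bin number.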

| Sequence | protein stability index (treatment: DMSO) | protein stability index (treatment: MLN4924 1 uM, 8 h) |
| --- | --- | --- |
| DWGTPRELTFSYIAFDGVVGSGGR [RTN2] | 1.91 ± 0.22 | 2.43 ± 0.37 |
| THPVTNTTEKQRLVKKLQDSVLER [GOLPH3L] | 4.13 ± 0.2 | 4.39 ± 0.13 |
| KEAGVQKLILTSSASVIFEGVDIK [NSDHL] | 2.99 ± 0.3 | 2.84 ± 0.19 |
| ICQGDGSSCTHVTGNYRKGNAHLG [ADAMTSL2] | 3.74 ± 0.33 | 3.92 ± 0.26 |
| YVKVLHHMVKISGGPHISYPPLHE [MAGEA3] | 2.33 ± 0.61 | 2.58 ± 0.31 |
| LKDEEGKLKDLSTVTSLQVPVLKP [PPP2R2C] | 4.91 ± 0.17 | 5.02 ± 0.085 |
| IRGPAGNNDCRIYVGNLPPDIRTK [SRSF1] | 3.43 ± 0.25 | 3.38 ± 0.27 |
| FISQVTVLKYFSHYMEENLMDGGD [PLK2] | 2.46 ± 0.69 | 2.3 ± 0.49 |
| PSLPAAGEQDCCGERVVINISGLR [KCNA3] | 3.79 ± 0.36 | 3.76 ± 0.29 |
| EQCVSFNSHVYNGRTHQWKPLYPD [ADAMTSL2] | 3.26 ± 0.25 | 3.08 ± 0.19 |
| KLQKEKEELERRFEDEVKRLGWQQ [MTUS2] | 4.36 ± 0.35 | 4.6 ± 0.32 |
| DDSVMKATQQARKRNFISSKSKQP [C22orf31] | 4.87 ± 0.15 | 4.98 ± 0.2 |
| GTETHGLVQVTLLDTVELATYCVR [PTPRD] | 2.39 ± 0.22 | 2.55 ± 0.51 |
| PDGGGPWLEDEPGRGAQGENERVR [ZSWIM9] | 5.41 ± 0.43 | 5.5 ± 0.3 |
| LAWASYDQTGKEVADRWYSEIKNY [GLIPR2] | 2.87 ± 0.5 | 3.05 ± 0.23 |
| NQNLSNRPSFNRTPIPWLSSGEPV [MYOZ1] | 3.43 ± 0.38 | 3.5 ± 0.15 |
| TVLTRSLFLGRILSLTSSASRLLT [FANCE] | 2.72 ± 0.13 | 2.81 ± 0.2 |
| VPQIFKYGETCFPKGRFERKRNPS [ZNF24] | 3.8 ± 0.76 | 3.93 ± 1.1 |
| QGKLIKRQRLAKNDRGDHYHWKDL [EFHC1] | 3.36 ± 0.48 | 3.71 ± 0.31 |
| NREHLVMMEKILGPIPSHMIHRTR [CLK3] | 2.79 ± 0.34 | 2.89 ± 0.33 |
| TLEEKFSDVHPVALNFMKGCLKMN [CDKL4] | 3.08 ± 0.34 | 3.16 ± 0.27 |
| KCGNCQTKLHDIDGVPHLILIASR [KMT5A] | 2.35 ± 0.46 | 2.51 ± 0.41 |
| PYGVYKKQQKDPSEEAAVLQYASL [ATE1] | 3.62 ± 0.23 | 3.8 ± 0.5 |

| Sequence | protein stability index (treatment: DMSO) | protein stability index (treatment: MLN4924 1 uM, 8 h) |
| --- | --- | --- |
| AFARQAAQEPSAVPRAGPLTVNTE [FOXJ1] | 4.54 ± 0.17 | 4.49 ± 0.24 |
| GPPPGAPHTPQTPGQGGPASTPAQ [NR2F2] | 5.34 ± 0.18 | 5.34 ± 0.16 |
| RSSGSEGTPADTGDLSPGHGASAP [PWWP2B] | 5.38 ± 0.34 | 5.35 ± 0.2 |
| ELARIVLLRHGMDRLWRPSKVLSL [RAB40B] | 2.54 ± 0.67 | 2.43 ± 0.75 |
| RFVPSNPIGILTTSYCELLQNKVP [PPTC7] | 2.57 ± 0.29 | 2.51 ± 0.18 |
| RFSSGGACGLGGGYGGGFSSSSSF [KRT16] | 2.38 ± 0.64 | 2.1 ± 0.35 |
| DRVILSSSTSCLMPSKLFAGLVHV [CRYL1] | 2.27 ± 0.64 | 2.58 ± 0.49 |
| CTSSWDKNLKIWNVHTGEFRNCGA [WDR88] | 2.17 ± 0.42 | 2.56 ± 0.31 |
| LLWATNEFSLVNVNLQRFGMNGQM [ETS2] | 2.9 ± 0.64 | 2.94 ± 0.49 |
| AEIQEACCEFLKRQLDPSNCLGIR [KLHL20] | 2.52 ± 0.24 | 2.67 ± 0.34 |
| RGNPELARLRPGLAVLGADERIFS [HAGHL] | 3.42 ± 0.47 | 3.65 ± 0.14 |
| NFLACLASFCVETNNGAGFGLSIL [SCAMP3] | 3.02 ± 0.55 | 2.99 ± 0.41 |
| CCVDVKPISQEKIESERALISQCG [DUSP5] | 3.69 ± 0.26 | 3.63 ± 0.22 |
| RAQMIRNEYRKLHPVLHKEEKQHL [TRIM43] | 3 ± 0.37 | 3.73 ± 0.2 |
| AKYCGHLYGLGSGSSYVQNGTGNA [CNOT7] | 2.8 ± 0.3 | 2.78 ± 0.28 |
| GAHFPQVPGGAVRVAAAAGSGPSP [PI4K2A] | 4.53 ± 0.14 | 4.48 ± 0.088 |
| LPDNYEIIDSSLEDITYVLKPTFT [USP39] | 2.87 ± 0.39 | 2.8 ± 0.47 |
| VIKGVLFRIFIIWAISSWFRRGPA [CLPTM1] | 2.75 ± 0.58 | 2.87 ± 0.68 |
| AVDAGDPAVEACENRRKVLYQRAP [TCF25] | 4.62 ± 0.21 | 5.02 ± 0.22 |
| SLGYGTNVAATGISQYEDDLPPPP [APBB1IP] | 4.86 ± 0.44 | 4.87 ± 0.42 |
| QQEVVVAGSSLPTSSKVNATVPSN [ACBD3] | 5.12 ± 0.34 | 4.98 ± 0.23 |
| EILSSRASYSGKAADVWSLGVALF [TRIB3] | 2.52 ± 0.52 | 2.42 ± 0.39 |
| KARVKPPEGYDVVAVYPNAKVELV [PDLIM4] | 3.02 ± 0.18 | 3.31 ± 0.28 |

| Sequence | protein stability index (treatment: DMSO) | protein stability index (treatment: MLN4924 1 uM, 8 h) |
| --- | --- | --- |
| QESYENVDSLESHIPSQEVPGTQV [ZNF263] | 5.42 ± 0.22 | 5.28 ± 0.22 |
| KRANAAFLIGAYAVIYLKKTPEEA [CDC14A] | 2.38 ± 0.57 | 2.21 ± 0.22 |
| EPGKQERDVYLPAGKWRSYKGELF [MYORG] | 3.17 ± 0.087 | 3.2 ± 0.21 |
| WIGYEHTSFCGQQFILERGEYPRW [CRYBA1] | 2.69 ± 0.41 | 2.21 ± 0.15 |
| WGRLTSYSGGGYYLDLPGSRQGSA [PKD2L1] | 2.63 ± 0.18 | 2.69 ± 0.18 |
| GVQREAQRIALRLGNGNDKKEMNK [KMT2E] | 4.8 ± 0.26 | 4.78 ± 0.28 |
| SVQQNGSIYIHVYFTKSGFHPDPR [CLPTM1] | 3.14 ± 0.98 | 2.29 ± 0.56 |
| DRPDLSLTVLPKLQARERGEEQVE [C2CD2L] | 5.37 ± 0.13 | 5.27 ± 0.16 |
| ADWFMSLGVGLLTFASLETVGIYF [TMEM40] | 3.37 ± 0.22 | 3.04 ± 0.52 |
| KRKVDTGGFLSESKDCKPPVYLLL [MYBL2] | 2.01 ± 0.51 | 2.61 ± 0.72 |
| LEDVERELDGPKQIFFGRRKDMIA [ZNF396] | 3.98 ± 0.3 | 4 ± 0.15 |
| QQVDTNISVILPTVHEVDIFRCFC [DENND6A] | 1.98 ± 0.31 | 2.24 ± 0.47 |
| NNHESLDEELHLLIISCRKLFYFK [FBXO39] | 2.25 ± 0.32 | 2.12 ± 0.16 |
| LSLCCWGWVSGQLRYSVVEESEPG [PCDHGC5] | 2.65 ± 0.48 | 2.25 ± 0.5 |
| QSLLQPKSSSVDSELTSLCQSVLE [SMG5] | 3.88 ± 0.26 | 3.94 ± 0.21 |
| FPNWAMALLITLIVVATLPIPVVF [SLC6A17] | 3.43 ± 0.88 | 3.04 ± 0.33 |
| RRDEQDDDDKGDSKETRLTLMEEV [GOLPH3] | 5.58 ± 0.23 | 5.51 ± 0.2 |
| VAVALRKPDGSRHQDVPSQDDSKP [AASDHPPT] | 5.15 ± 0.26 | 5 ± 0.17 |
| NIGKSHQGLKLYAVEISDHPGEHE [CPXM2] | 4.24 ± 0.13 | 4.07 ± 0.41 |
| KVLTEPEVRYYLRQIVSGLKYLHE [PLK2] | 3.19 ± 0.29 | 2.42 ± 0.33 |
| SFANDRENYDIIKTYHYLYLAMLE [FEM1B] | 2.44 ± 1.1 | 2.33 ± 0.61 |
| AFVLSSNSLKHCTELELFKATCRW [KLHL13] | 2.38 ± 0.55 | 2.23 ± 0.52 |
| LGKIFDLIGLPPEDDWPRDVSLPR [CDK4] | 2.34 ± 0.5 | 2.42 ± 0.13 |

| Sequence | protein stability index (treatment: DMSO) | protein stability index (treatment: MLN4924 1 uM, 8 h) |
| --- | --- | --- |
| KVVLSDAYAHPQQKVAVYRALQAA [TRADD] | 2.9 ± 0.41 | 3.24 ± 0.25 |
| GGATFLLTAKQLIKSIVEASKGCQ [TRIM63] | 2.87 ± 0.7 | 2.86 ± 0.47 |
| PLQGTDEDAVASADFSSMLSEEEK [TPD52L1] | 5.48 ± 0.58 | 5.69 ± 0.094 |
| VQVPEAWEELLTMKVEAKSHLQWQ [ZSCAN9] | 2.46 ± 0.65 | 2.54 ± 0.26 |
| SHEDVCVFKCSVSRETECSRVGKQ [CARM1] | 4.11 ± 0.25 | 4.12 ± 0.31 |
| EKVLDQVETELQRRNEETPEEGQQ [GDAP1] | 5.68 ± 0.14 | 5.64 ± 0.093 |
| SRELASMNLDIVDLLKKAKFHHSD [RHOBTB3] | 3.2 ± 0.2 | 3.09 ± 0.23 |
| RRYLEKSIKMGKRNGLHLPEQVQN [NLN] | 3.2 ± 0.42 | 3.23 ± 0.23 |
| QTPEQYYFCYKAILEFAEKEGMVS [PTPN9] | 2.12 ± 0.47 | 2.22 ± 0.35 |
| SHLPTRSPSFPEAPDSGRSAPYSA [TBX6] | 4.61 ± 0.21 | 4.52 ± 0.28 |
| GPAAAAAPSLEAPKPSGLEPGPAA [KCTD13] | 5.4 ± 0.11 | 5.39 ± 0.29 |
| LVLYPTSLAIFSEELDGLCFKGEL [PLEKHN1] | 2.88 ± 0.58 | 2.96 ± 0.23 |
| MKLSLGGSEMGLSSHLQSSKAGPT [KLHL13] | 3.79 ± 0.26 | 3.57 ± 0.29 |
| EPFVLPASSVESTLPVLEASSWKK [FBXO34] | 4.57 ± 0.22 | 4.87 ± 0.2 |
| QHKDQTAALPLAAEETANLPPSPP [MAP2] | 5.49 ± 0.086 | 5.45 ± 0.12 |
| LEKVECTPSQEHLKHQTVYRLLKC [FEM1A] | 2.85 ± 0.26 | 3.07 ± 0.38 |
| EVHSLTLSPPEQAAQPMQPLPESL [PLAGL1] | 4.92 ± 0.26 | 5.02 ± 0.088 |
| RVYDGREILTCGRDGEPEPMQKLQ [RBBP5] | 4.02 ± 0.38 | 3.94 ± 0.31 |
| EEAQPMAAPEGKRSLANGPNAGEQ [EID1] | 5.16 ± 0.34 | 5.48 ± 0.31 |
| QASEREAPSIEQRLQEVRESIRRA [FCHSD1] | 5.06 ± 0.35 | 5 ± 0.31 |
